Experimental data: article PMC11098746 (2024)
No end group written: not given here.

B1: ADP378 (protein)
chain: PAPGRPPTHNAHNWRLGQAPANWYNDTYPLSPPQRTPAGIRYRIAVIADLDTESRAQEENTWFSYLKKGYLTLSDSGDKVAVEWDKDHGVLESHLAEKGRGMELSDLIVFNGKLYSVDDRTGVVYQIEGSKAVPWVILSDGDGTVEKGFKAEWLAVKDERLYVGGLGKEWTTTTGDVVNENPEWVKVVGYKGSVDHENWVSNYNALRAAAGIQPPGYLIHESACWSDTLQRWFFLPRRASQERYSEKDDERKGANLLLSASPDFGDIAVSHVGAVVPTHGFSSFKFIPNTDDQIIVALKSEEDSGRVASYIMAFTLDGRFLLPETKIGSVKYEGIEFI
modifications: bait human Fc-tagged dimer
B2: 58 (protein)
chain: IQLHSVNYAPLNYIEIGDTLSNKVGELWHSHLNSFIDIVSTKVVNKLEDDLSNGNNLEKFMILLEDDADIFDASAYEGKNLALIQTEFIRKLKDKFKNSKFGQKLKKLGSKAKEKLLSLYQKHKGKLRHFFSILLKSLVIPIAVQFIRKNLNKWKQRTLEATQKLDEQSKNIAQPIINRLYNSFEDKIEEYSQENKINVEDELNALGQLDKDKQDIQKLEEQEKALLQ
modifications: bait human Fc-tagged dimer
B3: 4 (protein)
chain: KVYQGQFYLKKNEKIHYLTKFSCNIGTCQFSIKMKLRDNIAAKLLNNYYKLNNKALKEMENDKDDGNNHNNNKYDDDNNNNNNRANKLLHMDYDNAYYVLSNQDLEYIPQRITLMQDIEQRYVNKNDKCYAFGNLKNSHMFNIPFYFKYSDLVNSKTYNLKNFINNKYSMSFNAIHSELKNNKLLQSEILNYGPILNEKNSNYAYKEIYAKTTHRVHVWFLMFDDCYDNFIRNLKLNIKTKLAYWEYLLHASKKFDISSLNDMDIKQDTSYNDFQNEETEKDIYSKENINNNNNNNMNNNMNEKKNKAIFYKSFNFDKITLLENPKRFLFLEEQFTKSEINDISFFLKYYQFKKMKNFNNMYNNLYKNGYYEQVIDYIYQNEGFHIEYEVNIFQTNKAHFSYE
modifications: bait human Fc-tagged dimer
B4: 42 (protein)
chain: QLRFASLGDWGKDTKGQILNAKYFKQFIKNERVTFIVSPGSNFIDGVKGLNDPAWKNLYEDVYSEEKGDMYMPFFTVLGTRDWTGNYNAQLLKGQGIYIEKNGETSIEKDADATNYPKWIMPNYWYHYFTHFTVSSGPSIVKTGHKDLAAAFIFIDTWVLSSNFPYKKIHEKAWNDLKSQLSVAKKIADFIIVVGDQPIYSSGYSRGSSYLAYYLLPLLKDAEVDLYISGHDNNMEVIEDNDMAHITCGSGSMSQGKSGMKNSKSLFFSSDIGFCVHELSNNGIVTKFVSSKKGEVIYTHKLNIKKKKTLDKVNALQHFAALPNVELTDVPSSGP
modifications: bait human Fc-tagged dimer
B5: 31 (protein)
chain: EGYICDFSSEKYNIYFDEQKDDVICYHEIYEGDSIGIIIPRYKEGNENIYIKTNCFNEVSLESSGNNALSIYDIFNDDEITLYDQDSIFYTEYISSILHIKKVKKNTYLHCVFESKDVNGLTTHKGIAKITIKNVKHNENKKLINNDVDNNAALSFKKKLTNKLVIDLLNKIDIIKDDKLNNQYNNDDNKFLVEAKPGDILYLLGVKRKNKKYLYVDQDCPLHFERIGSIYKYIFPIINEKEEIYNCALYVDDDVSTNKKIVGNLKITFVSKNPAINDINIDVLKKYIHSDIEQKLYKLLYGEISNSVNKYAEQNVDINNADISAIQFMNLNSDNCNNNECIEFFNNAACSSYCGKGYRLLNGNNHMYDEQMVVPCYNGECKPEDEIEP
modifications: bait human Fc-tagged dimer
B6: 65 (peptide)
chain: MNEAKEEKTNMRNNHLSRVTIEILPSDEDNDIFDINDALLDELIGINNI
modifications: also: human Fc-tagged dimer
B7: 43 (protein)
chain: LFQEYQCYGSSSNTRVLNELNYDNAGTNLYNELEMNYYGKQENWYSLKKNSRSLGENDDGNNEDNEKLRKPKHKKLKQPADGNPDPNANPNVDPN
modifications: bait human Fc-tagged dimer
B8: 49 (protein)
chain: SDSYSTGGNEKEKIFMDNYKYMWTYIYFLQKRIMMKKLSHPLYMSKKFILLHNPKDIEEFRIPLKDTLWSYVDRNSIKGFININLDSIFDIDLKEYYVHDKENMANSEKSEDLECIDAYVQKTNEIYYNMADTKDEAYIFICKKCKHIYKDIKECREKSMQLMIQNMKITVPQIRLKYDKKNRNNEEIIINIPVTYVLSNLLSSLKKTVTYNTDDLNNACNVLIKMLHLDLLKILYNLQYHNGIFNGITEKYLIEFRNIFVKRQKTNTEDNNDMIWEECFVLKKSIDKIMNINSFLLTKSRNRYMDYLQNRRKRYRDILFMITYNVADMNLNTYIKSIYNYIHISTKIIEDIQYIYNQEVYATFFVRTELIETYLLRNPKQLKNTCSIYIMITISWFFNQINIGMYNKNKNVYDLFKEKFSKSNVKQIINSIYTNNVENKANILQICNDAMTNTIELIKKVIKNYYKQNNVLSNYNINFAGLIKFIDIQILRMKFIQSTLEKQPLIEYDTLNDDHLNNDAIIKRENMVCMMKYISNKINTYISLLKKSDLQTIMLQNYDKYNIYLDTYFTHNENVFFCSSPGQYLIIKIFFYSFFNILNIYG
modifications: bait human Fc-tagged dimer
B9: 5 (protein)
chain: YNIKSGNTANNIKYVNVLDNDRDINTHSVLPEVENVIERKDIYRQINFMETFVSSNNMMHDREKHTSNDAGSYEITGIVDGMKIGHPISVALGSQYSNYFDYLQIVHLDYTNSRFSFTVGEGKYYLRTYGSTYMTPSAIKIKVPCEKCKFINSEYSGIIKIIPYETNNNLFIYNWVLQTSSPLALENINTVFSDEADLIHGNSLSEEFKIDSSAAATSLNTFYGIVLHGIWSSEYAERLLTVISEFPDCVKMSAHDKNARSKQRKNQKWILVNEDLGSFDMKMEVCEEVNCDYSAIIHVSKHAFEYSKKLVHNRGRNGRYYSRRVEKILIRALLSLDFSLFITYFQQKHGVTLLDPQYDYELITNMAGYSSNNYQSWNHNLEELVELATSWDEYPKGLQKVQGLSYLLRRKNGAKHPVYPTAPAVAFPAGSQNNAFIEFMESAFVNYVDISHLVIHEVAHFIWVNTVSKELKEKWIQIGQWYKEPLSPSEWATKLEVEFVSAYAHDKNPAEDFAESMATYVLNSKLLNSRSFDKFKWIQDNLFGGGFYITTGTHKFDVINLGNEVYYFPGKVTRVRAKVLGSPTEDKLVKIYISLLSSDGSEGCAKHGYARIFSEQQTFRDLYFHTEDRSPCSHKLYGEFTMNKHESRGRWTAESMIFTGENNIERYVGLGSFHFYLYVNNQNEDVEKPIPLLDSISIYTHNAAETNDALLRLHVMVLENELIKEHGGPYASFAAHENKAYSYESRTYKMYPPEFNTLMLKADYFIRDINTRGFREVNMDSCKSYTNMDTRNLKCFQVLNPVTIPKYCIGSTYFLRQVSIEDIAGNLETVNIASDKYSARLHPIGVRDKQKPVVSNVRVSSKPANEYHDGETIVSLSFNVHDNLAGVYYIFVYLRDPHGGKHRSDIDRASLPTGTENKQINHKILLPKGSMGGTWMLEEIKAVDSCKNEARNIYTHSVYVQND
modifications: bait human Fc-tagged dimer
B10: 35 (protein)
chain: NNADINKAWKKNTYVDKKLNKLFNRALGESQVNGELASEEVKEKILDLLEEGNTLTESVDDNKNLEEAEDIKENILLSNIEEPKENIIDNLLNNIGQNSEKQESVSENVQVSDELFNELLNSVDVNGEVKENILEESQVNDDIFNSLVKSVQQEQQHNVEEKVEESVEENDEESVEENVEENVEENDDESVASSVEESIASSVDESIDSSIEENVAPTVEEIVAPTVEEIVAPSVVESVAPSVEESVEENVEESVAENVEESVAENVEESVAENVEESVAENVEESVAENVEESVAENVEEIVAPTVEESVAPTVEEIVAPSVEESVAPSVEEIVVPTVEESVAENVEEIVAPSVEEIVAPSVEEIVAPTVEESVAPTVEEIVAPSVEESVAPSVEEIVVPTVEESVAENVEESVAENVEEIVAPSVEEIVAPSVEEIVAPSVEEIVAPSVEEIVAPSVEEIVAPSVEEIVAPSVEEIVAPSVEEIVAPTVEEIVAPTVEEIVAPSVEEIVAPTVEESVAENVATNLADNLLSNLLGGIETEEIKDSILNEIEEVKENVVTTILENVEETTAESVTTFSNILEEIQENTITNDAIEEKLEELHENVLSAALENTQSEEEKKEVIDVIEEVKEEVATTLIETVEQAEEESASTITEIFENLEENAVESNENVAENLEKLNEAVFNTVLDKVEETVEISGESLENNEMDKAFFSEIFDNVKGIQENLLTGMFRSIETSIVIQSEEKVDLNENVVSSILDNIENMKEGLLNKLENIASTEGVQETVTEHVEQNVYVDVDVPAMKDQFLGILNEAGGLKEMFFNLEDVFKSESDVITVEEIKDEPVQKEVEKETVSIIEEMEENIVDVLEEEKEDLTDKMIDAVEESIEISSDSKEETESIKDKEKDVSLVVEEVQDNDMDESVEKVLELKNMEEELMKDAVEINDITSKLIEETQELNEVEADLIKDMEKLKELEKALSEDSKEIIDAKDDTLEKVIEEEHDITTTLDEVVELKDVEEDKIEKVSDLKDLEEDILKEVKEIKELESEILEDYKELKTIETDILEEKKEIEKDHFEKFEEEAEEIKDLEADILKEVSSLEVEEEKKLEEVHELKEEVEHIISGDAHIKGLEEDDLEEVDDLKGSILDMLKGDMELGDMDKESLEDVTAKLGERVESLKDVLSSALGMDEEQMKTRKKAQRPKLEEVLLKEEVKEEPKKKITKKKVRFDIKDKEPKDEIVEVEMKDEDIDEDIEEDVEEDIEEDKVEDIDEDIDEDIDEDIGEDKDEVIDLIVQKEKRIEKVKEKKKKLEKKVEEGVSGLKKHVDEVMKYVQKIDKEVDKEVSKALESKNDVTNVLKQNQDFFSKVKNFVKKYK
modifications: bait human Fc-tagged dimer
B11: 68 (protein)
chain: LIRNSNTPQAFLIPELNNNEKNEFNNNEKNEMNNNLNNEFNNNEENCDIQKIAEEMMENLLNENDMYTNIMLSLQNRLSDDYLCSEPKYENICIHEKDKISLSFPCSNPKYEKLIHKFTFKKLCNSKAAFNNALLKSFIEEDEEQNTFSLMLKQFKILLTCVDDELKDIYKESIDLLVDLKTSITELTQKLWSGKMVNVLKKREFLITGILCELRNGNKAPLISKSLEFENLGILKMNNEELLNEAYNAFSDYYYFFPYFIQKLLEKGGMIERLIKIHENLAKYRTKDMVNKINAQSKGEVLNNEDILNKLNAYKHYTKHGATSFIQSREVKIVNQNVNNDDTTKNQQQNVNNNEKLNNNNNNNNNQQVNNNNNNNNQQVNNNNNNNNNQVNNNNNNNNNQVNNNNYNNNNQVNNNNNNNQQVNNNNNYNNQLNNNNFNNNLQVNKNDKHVPKNNHATATHTNNILYNPLYSINPEKPKDIIKLLKDLIKYLHIVKFENNEPTTNIDEEGIRKLLENSFFDLNDDILIVRLLLKPQTVILTVIQSFMLMTPSPSRDAKAYCKKALINDQLVPTNDANILSEENELVNNFATKYVLIYEKMKLQELKEMEESKLKMKYSKTNLAALQVTNPQNNKDKNDASNKNNNPNNAATPLIAVVTDLSGEKTEDIINNNVDIATLSVGVQNTFQGP
modifications: bait human Fc-tagged dimer
B12: 23 (protein)
chain: ENVDTFKCNYAKKKKNGHHIKRHITNDEEKKKEYSFLMLGKENEEENKENKENNQNVNKDNNDNNNNEKKNEEQNHNNEKKQEEVINNNNNNVENKKEEENHNNDKKTDEQNHVNEKKQEGENNKHKKDDTIPPEKKINKENLLEYGTHDKEGHFIPSYKTLTDEILSTNNAMEKASSFLKIACSHVMKLIEFIPESKLSSQYIKVDNKNIYLKDIAVECQNIYFNLEKFSMTLIVFNSKINKFIYSQEK
modifications: bait human Fc-tagged dimer

What follows are binders tested against Circumsporozoite protein (CSP) (Plasmodium falciparum (isolate 3D7), UniProt Q7K740) (assay: AVEXIS screen signal:noise (double-corrected)).
Circumsporozoite protein (CSP), sequence (Q7K740 19-374): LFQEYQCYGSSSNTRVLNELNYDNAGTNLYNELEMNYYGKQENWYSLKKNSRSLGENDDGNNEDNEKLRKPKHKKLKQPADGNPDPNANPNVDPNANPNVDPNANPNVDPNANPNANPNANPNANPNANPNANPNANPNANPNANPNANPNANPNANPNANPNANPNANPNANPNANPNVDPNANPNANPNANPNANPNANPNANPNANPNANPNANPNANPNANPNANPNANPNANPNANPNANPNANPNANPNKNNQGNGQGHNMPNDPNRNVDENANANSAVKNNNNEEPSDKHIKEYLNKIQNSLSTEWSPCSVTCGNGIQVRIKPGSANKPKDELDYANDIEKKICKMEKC

| Binder | binding score |
| --- | --- |
| B1 | 1.3 |

These binders were tested against FGFR4 ectodomain (Homo sapiens, UniProt P22455) (assay: AVEXIS normalised luminescence).

| Binder | binding score |
| --- | --- |
| B2 | 0.979 |
| B3 | 0.9 |
| B4 | 1.51 |
| B5 | 1.28 |
| B6 | 1.05 |
| B7 | 1.37 |
| B8 | 0.996 |
| B9 | 0.798 |
| B10 | 0.753 |
| B11 | 0.952 |
| B12 | 0.913 |
